Results reported in PMC9063841, “Structural insights into choline-O-sulfatase reveal the molecular determinants for ligand binding” (Acta Crystallographica. Section D, Structural Biology, 2022).

Assays:
[1] = target: T1, SmeCOSe (Sinorhizobium meliloti, UniProt O69787); test: absorbance at […] nm (p-nitrophenol release); assay type: biochemical; details: pH 7.0
T1 construct: gene betC; full length, C-terminal His6 (pET-21b(+), plasmid pSERQF5), E. coli BL21(DE3); homotetramer, about 201 kDa; Cys54 is formylglycine in wild type; natural difference at residue 105 (printed F105L against strain GR4 CP003933.2, but L105F)

[2] = target: wild-type Sinorhizobium (Ensifer) meliloti choline-O-sulfatase (Sinorhizobium (Ensifer) meliloti CECT4857) (UniProt O69787); test: dynamic light scattering; 20 uM (in protomer units), 20 mM Tris-HCl pH 8.0, 20 C; mass from the hydrodynamic radius assuming a spherical shape
[3] = target: wild-type Sinorhizobium (Ensifer) meliloti choline-O-sulfatase (Sinorhizobium (Ensifer) meliloti CECT4857) (UniProt O69787); test: SEC; 100 ul samples of SmeCOSe (0.1-1 mg/ml, three concentrations) on a Tricorn Superdex 200 column, 20 mM Tris-HCl pH 8.0; mass estimated against standards

Row | Compound | Km [1] [mM] | stoichiometry N [2] | stoichiometry N [3]
1 | O=[N+]([O-])c1ccc(OS(=O)(=O)O)cc1 [pNPS] | 45.7 ± 12.5 |  | 
2 | wild-type Sinorhizobium (Ensifer) meliloti choline-O-sulfatase (from UniProt O69787 2-512) (enzyme) |  | 4 | 4
